Key:
[1] = biological target: Full-length αvβ3 integrin (UniProt P06756)
[2] = biological target: Full-length αvβ3 integrin (UniProt P06756); experiment: SPR; BIAcore T100; αvβ3 integrin immobilised via primary amines on a CM5 chip (1341-2655 RU); NC1 α4(IV) injected at several concentrations and flow rates; 25°C; 10 mM Hepes pH 7.4, 150 mM NaCl, 1 mM MgCl2, 2 mM MnCl2, 50 mM β-octyl-D-glucopyranoside; global fit, two-state model

UniProt P06756, sequence (P06756 31-1048, chain 1 of 2): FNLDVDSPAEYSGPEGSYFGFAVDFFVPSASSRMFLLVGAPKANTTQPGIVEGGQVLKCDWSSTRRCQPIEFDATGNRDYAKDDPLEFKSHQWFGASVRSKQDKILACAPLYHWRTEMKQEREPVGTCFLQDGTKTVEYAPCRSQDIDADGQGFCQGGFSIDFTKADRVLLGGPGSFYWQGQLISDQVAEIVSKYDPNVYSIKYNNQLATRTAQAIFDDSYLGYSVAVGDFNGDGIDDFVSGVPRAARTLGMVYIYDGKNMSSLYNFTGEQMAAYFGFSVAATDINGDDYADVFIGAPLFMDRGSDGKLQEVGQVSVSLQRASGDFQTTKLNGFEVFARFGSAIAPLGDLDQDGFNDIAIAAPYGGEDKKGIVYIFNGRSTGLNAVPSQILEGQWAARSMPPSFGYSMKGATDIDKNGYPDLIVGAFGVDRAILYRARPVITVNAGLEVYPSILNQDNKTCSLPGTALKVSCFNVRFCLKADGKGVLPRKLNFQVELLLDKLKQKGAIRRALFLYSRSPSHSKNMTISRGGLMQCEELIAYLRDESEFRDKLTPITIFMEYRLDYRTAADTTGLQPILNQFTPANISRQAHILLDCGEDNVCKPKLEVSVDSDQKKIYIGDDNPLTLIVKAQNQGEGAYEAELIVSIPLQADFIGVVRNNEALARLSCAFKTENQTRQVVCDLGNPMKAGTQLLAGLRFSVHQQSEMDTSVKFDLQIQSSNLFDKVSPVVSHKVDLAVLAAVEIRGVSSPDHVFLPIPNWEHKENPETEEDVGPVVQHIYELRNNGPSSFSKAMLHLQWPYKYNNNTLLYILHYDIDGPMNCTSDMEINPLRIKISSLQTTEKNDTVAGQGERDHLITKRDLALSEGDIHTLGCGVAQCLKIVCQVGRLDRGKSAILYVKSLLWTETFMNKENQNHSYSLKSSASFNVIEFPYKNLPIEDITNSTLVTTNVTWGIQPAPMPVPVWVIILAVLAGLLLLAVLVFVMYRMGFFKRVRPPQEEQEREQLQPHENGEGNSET
UniProt P06756, sequence (P05106 27-788, chain 2 of 2, further chain): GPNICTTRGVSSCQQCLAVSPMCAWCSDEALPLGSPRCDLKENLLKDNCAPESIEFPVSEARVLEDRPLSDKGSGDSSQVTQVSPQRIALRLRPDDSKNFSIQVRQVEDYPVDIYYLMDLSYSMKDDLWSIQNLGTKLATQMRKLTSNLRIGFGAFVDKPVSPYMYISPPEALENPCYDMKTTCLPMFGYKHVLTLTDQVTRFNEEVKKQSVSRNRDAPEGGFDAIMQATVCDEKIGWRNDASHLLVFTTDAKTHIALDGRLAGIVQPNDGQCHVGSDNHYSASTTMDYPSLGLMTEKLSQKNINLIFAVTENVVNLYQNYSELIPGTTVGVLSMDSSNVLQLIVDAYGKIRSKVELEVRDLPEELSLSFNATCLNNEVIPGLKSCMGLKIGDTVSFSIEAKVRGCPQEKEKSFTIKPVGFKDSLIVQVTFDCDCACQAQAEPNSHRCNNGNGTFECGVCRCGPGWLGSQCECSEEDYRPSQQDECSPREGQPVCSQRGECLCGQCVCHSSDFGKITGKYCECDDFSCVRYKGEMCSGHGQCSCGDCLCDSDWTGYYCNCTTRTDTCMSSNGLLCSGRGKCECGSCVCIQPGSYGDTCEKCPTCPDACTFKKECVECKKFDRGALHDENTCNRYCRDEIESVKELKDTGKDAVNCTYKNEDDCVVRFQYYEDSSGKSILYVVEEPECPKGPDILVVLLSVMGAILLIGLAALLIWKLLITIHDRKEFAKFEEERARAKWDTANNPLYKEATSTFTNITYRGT

## Recombinant human NC1 α4(IV) domain (NC1[α4(IV)1-229]) (domain or fragment)
[1]
  adhesion of UACC-903 melanoma cells on recombinant NC1 α4(IV) substratum; change after preincubation of the cells with an anti-αvβ3 integrin blocking antibody (10 µg/mL); irrelevant IgG had no effect: -38%
[2]
  Kd: 148 nM

From article PMC3335157
